From US20140161799A1 (ARCH ONCOLOGY, published 2014)
Residue numbers refer to the chain shown, from its start.

B1: pVxK7b-037-hum24-LC/pVxK7b-037-hum24-HC (antibody, human IgG1, V domains shown)
VH: QVQLQESGPGLVKPGATVKISCKVSGYTFTNYYVFWVRQARGQRLEWIGDINPVNGDTNFNEKFKNRVTITADKSTSTAYMELSSLRSEDTAVYYCARGGYTMDYWGQG
VL: AIQLTQSPSSLSASVGDRVTITCRSSQSLVHSNGNTYLHWYQQKPGQAPRLLIYKVSYRFSGVPSRFSGSGSGTEFTLTISSLQPDDFATYYCSQNTHVPRTFGQG
notes: Full-length human IgG1/kappa in CHO supernatant; Variable entries end within framework 4 (...FGQG / ...WGQG); also called Clone 24
B2: pVxK7b-037-hum15-LC/pVxK7b-037-hum15-HC (antibody, human IgG1, V domains shown)
VH: QVQLQESGPGLVKPSQTLSLTCTVSGYTFTNYYVFWVRQARGQRLEWIGDINPVNGDTNFNEKFKNRLTISKDTSKNQVVLTMTNMDPVDTATYYCARGGYTMDYWGQG
VL: B1 VL
notes: Full-length human IgG1/kappa in CHO supernatant; Variable entries end within framework 4 (...FGQG / ...WGQG); also called Clone 15
B3: pVxK7b-037-hum04-LC/pVxK7b-037-hum04-HC (antibody, human IgG1, V domains shown)
VH: QVQLQESGPGLVKPSQTLSLTCTVSGYTFTNYYVFWVRQAPGKGLEWVSDINPVNGDTNFNEKFKNRVTISVDTSKNQFSLKLSSVTAADTAVYYCARGGYTMDYWGQG
VL: B1 VL with A1D, L4M, Q42L, A48S, R50Q, V63I, S65A, P85S, D86E, T90V
notes: Full-length human IgG1/kappa in CHO supernatant; Variable entries end within framework 4 (...FGQG / ...WGQG); also called Clone 4
B4: pVxK7b-037-hum07-LC/pVxK7b-037-hum07-HC (antibody, human IgG1, V domains shown)
VH: B1 VH
VL: DIVMTQTPLSLPVTPGEPASISCRSSQSLVHSNGNTYLHWYLQKPGQSPQLLIYKVSYRFSGVPDRFSGSGSGTDFTLKISRVEAEDVGVYYCSQNTHVPRTFGQG
notes: Full-length human IgG1/kappa in CHO supernatant; Variable entries end within framework 4 (...FGQG / ...WGQG); also called Clone 7
B5: pVxK7b-037-hum12-LC/pVxK7b-037-hum12-HC (antibody, human IgG1, V domains shown)
VH: B1 VH
VL: B4 VL with L42Q, Q47K, S48A, Q50K
notes: Full-length human IgG1/kappa in CHO supernatant; Variable entries end within framework 4 (...FGQG / ...WGQG); also called Clone 12
B6: pVxK7b-037-hum21-LC/pVxK7b-037-hum21-HC (antibody, human IgG1, V domains shown)
VH: B2 VH
VL: AIQLTQSPSSLSASVGDRVTITCRSSQSLVHSNGNTYLHWYQQKPGQAPRLLIYKVSYRFSGVPDRFSGSGSGTDFTLKISRVEAEDVGVYYCSQNTHVPRTFGQG
notes: Full-length human IgG1/kappa in CHO supernatant; Variable entries end within framework 4 (...FGQG / ...WGQG); also called Clone 21
B7: pVxK7b-037-hum06-LC/pVxK7b-037-hum06-HC (antibody, human IgG1, V domains shown)
VH: B2 VH
VL: B1 VL with A1D, L4M, Q42L, A48S, R50Q, V63I, S65A, P85S, D86E, T90V
notes: Full-length human IgG1/kappa in CHO supernatant; Variable entries end within framework 4 (...FGQG / ...WGQG); also called Clone 6
B8: pVxK7b-037-hum02-LC/pVxK7b-037-hum02-HC (antibody, human IgG1, V domains shown)
VH: QVQLQESGPGLVKPSQTLSLTCTVSGYTFTNYYVFWVRQARGQRLEWIGDINPVNGDTNFNEKFKNRVTISADKSISTAYLQWSSLKASDTAMYYCARGGYTMDYWGQG
VL: DVVMTQSPLSLPVTLGQPASISCRSSQSLVHSNGNTYLHWYQQKPGQAPRLLIYKVSYRFSGVPSRFSGSGSGTEFTLTISSLQPDDFATYYCSQNTHVPRTFGQG
notes: Full-length human IgG1/kappa in CHO supernatant; Variable entries end within framework 4 (...FGQG / ...WGQG); also called Clone 2
B9: pVxK7b-037-hum19-LC/pVxK7b-037-hum19-HC (antibody, human IgG1, V domains shown)
VH: EVQLVQSGAEVKKPGESLRISCKGSGYTFTNYYVFWIRQSPSRGLEWLGDINPVNGDTNFNEKFKNRVTITADKSTSTAYMELSSLRSEDTAVYYCARGGYTMDYWGQG
VL: B4 VL with I2V, T7S, P15L, E17Q, L42Q, Q47K, S48A, Q50K
notes: Full-length human IgG1/kappa in CHO supernatant; Variable entries end within framework 4 (...FGQG / ...WGQG); also called Clone 19
B10: pVxK7b-037-hum23-LC/pVxK7b-037-hum23-HC (antibody, human IgG1, V domains shown)
VH: B2 VH
VL: B4 VL with L42Q, Q47K, S48A, Q50K
notes: Full-length human IgG1/kappa in CHO supernatant; Variable entries end within framework 4 (...FGQG / ...WGQG); also called Clone 23
B11: pVxK7b-037-hum05-LC/pVxK7b-037-hum05-HC (antibody, human IgG1, V domains shown)
VH: B3 VH
VL: B4 VL
notes: Full-length human IgG1/kappa in CHO supernatant; Variable entries end within framework 4 (...FGQG / ...WGQG); also called Clone 5
B12: pVxK7b-037-hum08-LC/pVxK7b-037-hum08-HC (antibody, human IgG1, V domains shown)
VH: QITLKESGPTLVKPTQTLTLTCTFSGYTFTNYYVFWIRQSPSRGLEWLGDINPVNGDTNFNEKFKNRFTISRDNAKNSLYLQMNSLRAEDTAVYYCARGGYTMDYWGQG
VL: B4 VL with L42Q, Q47K, S48A, Q50K
notes: Full-length human IgG1/kappa in CHO supernatant; Variable entries end within framework 4 (...FGQG / ...WGQG); also called Clone 8
B13: pVxK7b-037-hum13-LC/pVxK7b-037-hum13-HC (antibody, human IgG1, V domains shown)
VH: B9 VH
VL: B4 VL with L42Q, Q47K, S48A, Q50K
notes: Full-length human IgG1/kappa in CHO supernatant; Variable entries end within framework 4 (...FGQG / ...WGQG); also called Clone 13
B14: pVxK7b-037-hum03-LC/pVxK7b-037-hum03-HC (antibody, human IgG1, V domains shown)
VH: B9 VH with I37V, S40A, P41R, S42G, R43Q, G44R, L48I
VL: B4 VL with I2V, T7S, P15L, E17Q, L42Q, Q47K, S48A, Q50K
notes: Full-length human IgG1/kappa in CHO supernatant; Variable entries end within framework 4 (...FGQG / ...WGQG); also called Clone 3
B15: pVxK7b-037-hum09-LC/pVxK7b-037-hum09-HC (antibody, human IgG1, V domains shown)
VH: B2 VH
VL: B4 VL with I2V, T7S, P15L, E17Q, L42Q, Q47K, S48A, Q50K
notes: Full-length human IgG1/kappa in CHO supernatant; Variable entries end within framework 4 (...FGQG / ...WGQG); also called Clone 9
B16: chimeric antibody VxP037-01LC/VxP037-01HC (antibody, human IgG1, kappa, V domains shown)
VH: EVQLQQFGAELVKPGASMKLSCKASGYTFTNYYVFWVKQRPGQGLEWIGDINPVNGDTNFNEKFKNKATLTVDKSSTTTYLQLSSLTSEDSAVYYCTRGGYTMDYWGQGTLVTVSS
VL: DVVMTQTPLSLSVSLGDQASISCRSSQSLVHSNGNTYLHWYLQKPGQSPKLLIYKVSYRFSGVPDRFSGSGSGTDFTLKISRVEAEDLGVYFCSQNTHVPRTFGQGTKVEIKR
notes: tested as CHO supernatant; also called Chimera; VxP037-01-LC-Pro/VxP037-01-HC-Pro

The binders below were run against T1, human CD47 (human, UniProt Q08722 19-323) (assay: flow cytometry on RBCs, antibody 10 ng/ml).
T1 construct: whole, on cells; also called CD47 on human red blood cells
T1 sequence (Q08722 19-323): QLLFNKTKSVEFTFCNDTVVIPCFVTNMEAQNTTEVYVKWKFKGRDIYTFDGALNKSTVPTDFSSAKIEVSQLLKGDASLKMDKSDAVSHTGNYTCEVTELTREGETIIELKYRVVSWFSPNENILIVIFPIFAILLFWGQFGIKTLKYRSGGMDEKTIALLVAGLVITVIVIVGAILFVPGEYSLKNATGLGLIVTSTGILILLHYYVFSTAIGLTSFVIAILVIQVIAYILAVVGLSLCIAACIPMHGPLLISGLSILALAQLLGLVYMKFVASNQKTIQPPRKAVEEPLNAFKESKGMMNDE
Method: (§1) Cross species reactivity of humanized antibodies of the present invention is determined using freshly isolated red blood cells (RBCs), which display CD47 on their surface, from human, mouse, rat, and pig according to the methods disclosed in Kamel et al. (2010) Blood. Transfus. 8(4):260-266.
(§2) RBCs are incubated for 60 minutes on ice with tissue culture supernatants containing the secreted humanized antibodies at a concentration of 10 ng/ml in a solution of phosphate buffered saline, pH 7.2, 2.5 mM EDTA (PBS+E). Cells are then washed with cold PBS+E, and incubated for an additional hour on ice with FITC labeled donkey anti-human antibody (Jackson Immuno Research Labs, West Grove, Pa.; Catalogue #709-096-149) in PBS+E. Cells are then washed with PBS+E, and antibody binding is analyzed using a BD FACSAria Cell Sorter (Becton Dickinson) or a C6 Accuri Flow Cytometer (Becton Dickinson). Antibody binding is quantitated by comparison of mean fluorescence values relative to that of chimeric antibody >VxP037-01LC (SEQ ID NO:7))/>VxP037-01HC (SEQ ID NO:57). The mean fluorescence value for each antibody is divided by the mean fluorescence value for the chimeric antibody.

| Binder | mean fluorescence relative to chimeric antibody |
| --- | --- |
| B1 | 0.8 fold of chimera |
| B2 | 1 fold of chimera |
| B3 | 0.6 fold of chimera |
| B4 | 0.5 fold of chimera |
| B5 | 0.8 fold of chimera |
| B6 | 1.2 fold of chimera |
| B7 | 0.9 fold of chimera |
| B8 | 1 fold of chimera |
| B9 | 0.7 fold of chimera |
| B10 | 1.2 fold of chimera |
| B11 | 1 fold of chimera |
| B12 | 0.7 fold of chimera |
| B13 | 1.2 fold of chimera |
| B14 | 0.7 fold of chimera |
| B15 | 1.2 fold of chimera |
| B16 | 1 fold of chimera |

Each binder was assayed against T2, mouse CD47 (mouse, UniProt Q61735 19-303) (assay: flow cytometry on RBCs, antibody 10 ng/ml).
T2 construct: whole, on cells; also called CD47 on mouse red blood cells
T2 sequence (looked up): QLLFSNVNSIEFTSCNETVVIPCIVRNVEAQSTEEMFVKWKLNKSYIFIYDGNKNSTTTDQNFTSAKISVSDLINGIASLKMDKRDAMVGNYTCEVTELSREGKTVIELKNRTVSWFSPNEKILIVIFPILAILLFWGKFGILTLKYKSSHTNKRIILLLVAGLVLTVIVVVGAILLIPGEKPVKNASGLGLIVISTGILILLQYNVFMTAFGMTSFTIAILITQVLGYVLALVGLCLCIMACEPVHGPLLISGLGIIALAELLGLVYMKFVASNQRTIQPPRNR
Method: as §1, §2

| Binder | mean fluorescence relative to chimeric antibody |
| --- | --- |
| B1 | 0.7 fold of chimera |
| B2 | 1.3 fold of chimera |
| B3 | 0.6 fold of chimera |
| B4 | 0.4 fold of chimera |
| B5 | 0.6 fold of chimera |
| B6 | 1.2 fold of chimera |
| B7 | 1.2 fold of chimera |
| B8 | 1.2 fold of chimera |
| B9 | 1 fold of chimera |
| B10 | 1.4 fold of chimera |
| B11 | 1 fold of chimera |
| B12 | 0.7 fold of chimera |
| B13 | 1.3 fold of chimera |
| B14 | 0.9 fold of chimera |
| B15 | 1.4 fold of chimera |
| B16 | 1 fold of chimera |

What follows are binders tested against T3, rat CD47 (rat, UniProt P97829 19-303) (assay: flow cytometry on RBCs, antibody 10 ng/ml).
T3 construct: whole, on cells; also called CD47 on rat red blood cells
T3 sequence (looked up): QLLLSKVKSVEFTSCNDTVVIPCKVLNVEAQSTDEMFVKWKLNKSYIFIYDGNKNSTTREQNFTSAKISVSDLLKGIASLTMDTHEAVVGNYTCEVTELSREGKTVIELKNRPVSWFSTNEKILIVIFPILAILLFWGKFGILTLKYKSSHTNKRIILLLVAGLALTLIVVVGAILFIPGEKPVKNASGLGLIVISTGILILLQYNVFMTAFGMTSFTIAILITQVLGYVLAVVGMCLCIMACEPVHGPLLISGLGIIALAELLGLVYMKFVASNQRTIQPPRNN
Method: as §1, §2

| Binder | mean fluorescence relative to chimeric antibody |
| --- | --- |
| B1 | 1.2 fold of chimera |
| B2 | 2.4 fold of chimera |
| B3 | 1 fold of chimera |
| B4 | 0.8 fold of chimera |
| B5 | 1.3 fold of chimera |
| B6 | 2.8 fold of chimera |
| B7 | 2.1 fold of chimera |
| B8 | 2.6 fold of chimera |
| B9 | 2.6 fold of chimera |
| B10 | 3.3 fold of chimera |
| B11 | 2.2 fold of chimera |
| B12 | 1.2 fold of chimera |
| B13 | 3.1 fold of chimera |
| B14 | 1.7 fold of chimera |
| B15 | 3.7 fold of chimera |
| B16 | 1 fold of chimera |

Each binder was assayed against T4, pig CD47 (pig, UniProt Q9GKE8 19-303) (assay: flow cytometry on RBCs, antibody 10 ng/ml).
T4 construct: whole, on cells; also called CD47 on pig red blood cells
T4 sequence (looked up): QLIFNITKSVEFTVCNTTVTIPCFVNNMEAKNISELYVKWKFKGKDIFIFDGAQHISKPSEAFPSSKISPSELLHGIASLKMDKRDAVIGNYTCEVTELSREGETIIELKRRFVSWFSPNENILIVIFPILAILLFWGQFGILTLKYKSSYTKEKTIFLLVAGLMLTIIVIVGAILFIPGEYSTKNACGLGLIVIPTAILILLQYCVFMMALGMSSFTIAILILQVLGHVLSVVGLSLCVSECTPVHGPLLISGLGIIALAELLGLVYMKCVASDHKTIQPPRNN
Method: as §1, §2

| Binder | mean fluorescence relative to chimeric antibody |
| --- | --- |
| B1 | 1.1 fold of chimera |
| B2 | 1.2 fold of chimera |
| B3 | 0.6 fold of chimera |
| B4 | 0.9 fold of chimera |
| B5 | 1.4 fold of chimera |
| B6 | 1.4 fold of chimera |
| B7 | 1.1 fold of chimera |
| B8 | 1.2 fold of chimera |
| B9 | 1.3 fold of chimera |
| B10 | 1.7 fold of chimera |
| B11 | 1.2 fold of chimera |
| B12 | 0.8 fold of chimera |
| B13 | 1.4 fold of chimera |
| B14 | 0.9 fold of chimera |
| B15 | 1.6 fold of chimera |
| B16 | 1 fold of chimera |
